B1: single chain antibody sFv5A (scFv)
scFv: QVQLQQSGGGVVQPGRSLRLSCAASGFTFSSYAMHWVRQAPGKGLEWVSAISGSGGSTYYADSVKGRFTISRDNAKNSLYLQMNSLRAEDTAVYYCARDTRGYFDLWGRGTLVTVSSGGGGSGGGGSGGGGSSELTQDPAMSVALGQTVRITCQGDSLRKYHASWYQQRPRQAPRLVVYGKNERPSGIPERFSGSTSGDTASLTISGLQAEDEADYYCHSRDSNADLVVFGGGTKVTVLGAAAEQKLISEEDLNGAAHHHHHH
notes: also called sFv (positive control)
B2: sFv5AF-Cys (scFv)
scFv: DYKAKQVQLVQSGGGVVQPGRSLRLSCAASGFTFSSYAMHWVRQAPGKGLEWVSAISGSGGSTYYADSVKGRFTISRDNAKNSLYLQMNSLRAEDTAVYYCARDTRGYFDLWGRGTLVTVSSGGGGSGGGGSGGGGSSELTQDPAMSVALGQTVRITCQGDSLRKYHASWYQQRPRQAPRLVVYGKNERPSGIPERFSGSTSGDTASLTISGLQAEDEADYYCHSRDSNADLVVFGGGTKVTVLGGGGGSCAAAEQKLISEEDLNGAAHHHHHH
notes: also called s5AF-Cys; sFv5AF-Cys starting material

Molecular target: T1, pIgR Domain 6 GST (D6-GST) fusion protein, species not stated (Schistosoma japonica, UniProt P08515 1-218 = GST)
T1 construct: also called D6-GST constructs
Assay: SPR BIAcore, 1:1 Langmuir global fit 62.5-1000 nM; ligand not named

T1 sequence (P08515 whole entry, the tested form may be a part): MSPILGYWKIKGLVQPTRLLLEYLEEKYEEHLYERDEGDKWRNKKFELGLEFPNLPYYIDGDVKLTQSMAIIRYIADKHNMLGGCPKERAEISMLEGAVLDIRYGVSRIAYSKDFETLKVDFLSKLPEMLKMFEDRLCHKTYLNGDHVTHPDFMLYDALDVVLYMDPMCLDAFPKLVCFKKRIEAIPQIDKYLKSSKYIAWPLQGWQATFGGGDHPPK

| Binder | Ka [M⁻¹] | Kd [nM] | koff [s⁻¹] | kon [M⁻¹ s⁻¹] |
| --- | --- | --- | --- | --- |
| B1 | 6.31e+06 | 158 | 0.00464 | 29300 |
| B2 | 9.84e+06 | 102 | 0.00464 | 37600 |

Reference: US20060099150A1 (published 2006)
